Measurements as given in paper PMC4705668.

Biological target: 111p (modern human L1Pa1 ORF1p) (Homo sapiens, UniProt Q9UN81 1-338)
Assay: filter binding; 0.05 M NaCl, 37 C; the three proteins indistinguishable; Filter binding: 20 mM Tris, 10% glycerol, 0.5 mM MgCl2, 0.1 mM DTT, 100 ug/ml BSA, 0.05 M NaCl, 37 C 1 h, 0.1 nM DNA; cross-linking: 20 mM Hepes pH 7.5, 10% gly

111p (modern human L1Pa1 ORF1p), sequence (Q9UN81 whole entry): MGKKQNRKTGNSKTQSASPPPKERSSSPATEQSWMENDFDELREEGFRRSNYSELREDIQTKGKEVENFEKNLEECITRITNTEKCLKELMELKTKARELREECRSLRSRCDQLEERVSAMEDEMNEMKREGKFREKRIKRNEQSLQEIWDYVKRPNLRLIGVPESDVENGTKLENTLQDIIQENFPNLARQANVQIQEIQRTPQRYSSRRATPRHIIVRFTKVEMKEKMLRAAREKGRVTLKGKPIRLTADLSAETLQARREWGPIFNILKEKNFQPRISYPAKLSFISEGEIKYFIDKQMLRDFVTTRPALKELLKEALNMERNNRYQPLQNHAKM

B1: mismatched duplex d29 / d29_c-mm (dsDNA)
DNA 1: AAAAAGTACACAGTCTAACATCAACTCGC
DNA 2: GCGAGTTGACGTCAGACCGTGCACTTTTT
B1: binds.
